Reference: patent publication US20220298231A1 (AC IMMUNE, published 2022)
Read-outs that look alike come from different tables or passages of the source. Values belong to the binder of their own block, whether it stands above or below them. Where no end group is shown, it is not given here. The star is where a group is joined. Biotin = O=C1N[C@H]2[C@H](CS[C@H]2CCCCC(=O)*)N1; Ahx = NCCCCCC(=O)O

Assays:
alpha-synuclein fibrils [1] = molecular target: T1, alpha-synuclein fibrils (Homo sapiens (Human), UniProt P37840 1-140); assay: cell-based or functional assay
91-105aa [2] = molecular target: T2, 91-105aa; assay: 15-mer peptide ELISA
T2 construct: also called alpha-synuclein peptide 91-105
T2 peptide: {Biotin-Ahx}-ATGFVKKDQLGKNEE
Protocol: (§1) Epitope mapping for the antibodies derived from stable hybridoma clones was determined using an indirect ELISA on a library of 15-mer peptides covering the entire sequence of human alpha-synuclein from 1 to 140aa. […] Results are expressed as optical density (O.D.). Each bar represents data for an individual antibody.
(§2) Serum-free supernatants were harvested from stable hybridomas. The supernatants containing antibodies of interest were then screened by an indirect ELISA assay to determine epitopes. Epitopes were first determined using a library of 15-mer peptides covering the entire sequence of human alpha-synuclein protein, spanning amino acids (aa) 1-140 with 9aa offset and 6aa overlap. […] Briefly, streptavidin-coated ELISA plates were blocked overnight at 4° C. […] Plates were washed with PBS/0.05% Tween® 20 and then incubated with the hybridoma supernatants at 1/100 dilution for 1 hour at 25° C. […] After final wash, plates were incubated 2 hours at 25° C. with alkaline phosphatase substrate (p-nitrophenyl phosphate disodium hexahydrate; pNPP, S0942, Sigma) and read the absorbance optical density (O.D.) signal at 405 nm using an ELISA plate reader (Tecan, Switzerland).

100-114aa [3] = molecular target: T3, 100-114aa; assay: 15-mer peptide ELISA;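 further: indirect ELISA of hybridoma supernatant antibodies (1/100, 1 h) binding immobilized 15-mer peptides spanning human alpha-synuclein 1-140 on streptavidin plates, read as optical density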
T3 peptide: {Biotin-Ahx}-LGKNEEGAPQEGILE
Protocol: as §1, §2

109-123aa [4] = molecular target: T4, 109-123aa; assay: 15-mer peptide ELISA;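 further: indirect ELISA of hybridoma supernatant antibodies (1/100, 1 h) binding immobilized 15-mer peptides spanning human alpha-synuclein 1-140 on streptavidin plates, read as optical density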
T4 peptide: {Biotin-Ahx}-QEGILEDMPVDPDNE
Protocol: as §1, §2

37-51aa = molecular target: T5, 37-51aa; assay: 15-mer peptide ELISA
T5 construct: also called alpha-synuclein peptide 37-51
T5 peptide: {Biotin-Ahx}-VLYVGSKTKEGVVHG
Protocol: as §1, §2

82-96aa [5] = molecular target: T6, 82-96aa; assay: 15-mer peptide ELISA
T6 construct: also called alpha-synuclein peptide 82-96
T6 peptide: {Biotin-Ahx}-VEGAGSIAAATGFVK
Protocol: as §1, §2

1-15aa = molecular target: T7, 1-15aa; assay: indirect ELISA on biotinylated 15-mer peptide (streptavidin plate), supernatant 1/100
T7 construct: also called alpha-synuclein peptide 1-15
T7 peptide: {Biotin-Ahx}-MDVFMKGLSKAKEGV
Protocol: as §1, §2

91-105aa [6] = molecular target: T2, 91-105aa; assay: 15-mer peptide ELISA
Protocol: as §1, §2

[7] = molecular target: T8, human full-length alpha-synuclein (human, UniProt P37840 1-140); assay: SPR, 100 nM monomer, relative to chimeric;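 further: SPR with antibody variants captured via anti-human Fc IgG on an amine-coupled chip, isotype IgG1 reference channel subtracted, dissociation rate fitted by 1:1 or heterogeneous ligand model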
Protocol: (§3) Flow channels (Fc) 1-8 were activated with a fresh solution of EDC/NHS (Amine Coupling Kit, 1:1 ratio of both reagents, GE Healthcare Life Sciences, BR100050). […] The chip was deactivated by 1 M ethanolamine-HCl (GE Healthcare Life Sciences, BR100050) at a flow rate of 10 μL/min for 420 s.
(§4) A human IgG1 isotype control diluted in running buffer 1×HBS-EP+ (GE Healthcare Life Sciences, BR100669) was captured onto Fc1 via anti-human Fc IgG at a flow rate of 10 μL/min. […] 10 mM glycine pH 1.5 as regeneration buffer was injected following every dissociation phase.
(§5) The data for reference channel Fc1 and buffer channel were subtracted to generate the sensorgrams. The experimental data was fitted by 1:1 binding model or heterogeneous ligand model.

alpha-synuclein fibrils [8] = molecular target: T1, alpha-synuclein fibrils; assay: SPR, 450 nM aggregates, relative to chimeric;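 further: surface plasmon resonance with anti-human Fc capture, human IgG1 isotype control channel and buffer run subtracted, dissociation rates fitted by 1:1 or heterogeneous ligand binding model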
Protocol: as §3, §4, §5

alpha-synuclein fibrils [9] = molecular target: T1, alpha-synuclein fibrils; assay: SPR, mAb captured, 1:1 model
Protocol: (§6) Non-covalent immobilization of alpha-synuclein antibodies was performed using a target immobilization method of 200 response units (RU). […] Binding affinity of alpha-synuclein antibodies to monomeric or fibrillar alpha-synuclein species was performed using a single-cycle kinetics method. […] A dissociation phase of 900 sec followed the final 50 nM injection. Regeneration of the sensor to the goat anti-human antibody layer was achieved using 3 regenerations of 10 mM Glycine pH 1.7. […] Regeneration of the sensor to the goat anti-human antibody layer was achieved using 3 regenerations of 10 mM Glycine pH 1.7. Results obtained from single-cycle kinetics were evaluated by Biacore K8 evaluation software with 1:1 binding homogenous Langmuir model (with a global Rmax) with Cycle 5 as a blank subtraction. The following kinetic parameters were obtained: on-rate (ka), off-rate (kd), affinity constant (KD, ratio of kd by ka), maximum response (Rmax), and goodness of fit (Chi2).
(§7) Kinetic constants were determined from 1:1 homogenous binding models for binding versus the aggregated form, while a steady state fit was used to determine KD values versus the monomeric form of alpha-synuclein.

[10] = molecular target: T8, human full-length alpha-synuclein; assay: SPR, mAb captured, steady-state fit
Protocol: as §6, §7

109-123aa [11] = molecular target: T4, 109-123aa; assay: indirect ELISA on biotinylated 15-mer peptide (streptavidin plate), supernatant 1/100
Protocol: as §1, §2

82-96aa [12] = molecular target: T6, 82-96aa; assay: 15-mer peptide ELISA
Protocol: as §1, §2

100-114aa [13] = molecular target: T3, 100-114aa; assay: indirect ELISA on biotinylated 15-mer peptide (streptavidin plate), supernatant 1/100
Protocol: as §1, §2

B1: ACI-7067-1108B11-Ab2 (antibody, V domains shown)
VH: EVQLVESGGGLVQPKGSLKLSCAASGFTFNTYAMHWVRQAPGKGLEWVARIRSKGSNYATNYADSVKDRFTISRDDSQSMLYLQMNNLKTEDTAMYYCVRGHGSSYFSYWGQGTLVTVSA
VL: QIVLTQSPAIMSASPGERITMTCSANSSVTYMHWYQQKSGTSPKRWIYDTSNLASGVPARFSGSGSGTSYSLTISSMEAEDAATYYCQQWKSHPPTFGAGTKLELK
IC50, de novo alpha-synuclein aggregates formed in seeded mouse primary cortical neurons (alpha-synuclein fibrils [1]): 143 nM
IC50, de novo alpha-synuclein aggregates formed in the seeded in vitro cellular model (alpha-synuclein fibrils [1]): 4.5 nM

B5: ACI-7067-1113D10-Ab1 (antibody, V domains shown)
VH: EVQLVESGGGLVQPKGSLKLSCAASGFTFNTYALHWVRQAPGKGLEWVARIRSKSSNYATYYADSVKDRFTISRDDSQSMLYLQMNNLKTEDTGMYYCVRGGVSPFDYWGQGTTLTVSS
VL: QIVLTQSPAIMSASPGEKVTMTCSASSSVSYMHWYQQKSGTSPKRWIYDTSKLASGVPARFSGSGSGTSYSLTISSMEAEDSATYYCQQWSNNPPTFGGGTKLEIK
IC50, de novo alpha-synuclein aggregates formed in seeded mouse primary cortical neurons (alpha-synuclein fibrils [1]): 702 nM
IC50, de novo alpha-synuclein aggregates formed in the seeded in vitro cellular model (alpha-synuclein fibrils [1]): 39.6 nM

B9: ACI-8033-1A12-Ab1 (antibody, V domains shown)
VH: QVHLKQSGADLVRPGASVKLSCKASGYSFTDFYINWVKQTPGQGLEWIARIYPGNNNTFYNEKFKGKATLSAEKSSTTAYMQLSSLTSEDSAVYFCVVGYYGAWGQGTTLTVSS
VL: DVVMTQTPLSLPVSLGDQASISCRSSQSLVHSNGNTHLHWYLQKPGQSPKLLIYKVSNRFSGVPDRFSGSGSGTDFTLKISRVEAEDLGFYFCSQSTHVPWTFGGGTKLEIK
notes: mouse hybridoma mAb; also called 917.1A12C1B4
binding result (109-123aa [11]): binds
binding result (91-105aa [2]): no binding (tested: supernatant 1/100)
binding result (82-96aa [12]): no binding (tested: supernatant 1/100)
binding result (100-114aa [3]): no binding (tested: supernatant 1/100)

B10: ACI-8033-1G10-Ab1 (antibody, V domains shown)
VH: DVQLQESGPGLVKPSQTVFLTCTVTGISITTGNYRWSWIRQFPGNKLEWIGYIYYSGTITYNPSLTSRTTITRDTPKNQFFLEMNSLTAEDTATYYCARIYYGNAMDYWGQGTSVTVSS
VL: DVVMTQTPLSLPVSLGDQASISCRSSQSLVHSNGNTYLHWYLQKPGQSPKLLIYKVSNRFSGVPDRFSGSGSGTDFTLKISRVEAEDLGVYFCSQSTHVPHTFGGGTKLEIK
notes: mouse hybridoma mAb; also called 917.1G10A10F6
binding result (109-123aa [11]): binds
binding result (91-105aa [2]): no binding (tested: supernatant 1/100)
binding result (82-96aa [12]): no binding (tested: supernatant 1/100)

B11: ACI-8033-19A2-Ab1 (antibody, V domains shown)
VH: EVQLVESGGGLVQPKGSLKLSCAASGFSFNTYAMNWVRQAPGKGLEWVARIRSKSNNYATYYVDSVKDRFTISRDDSESMLYLQMNNLKTEDTALYYCVSESAYWGQGTLVTVSA
VL: DVVMTQTPLSLPVSLGDQASISCRSSQSLVHSNGNTYLYWYLQKPGQSPKLLIYKVSNRLSGVPDRFSGSGSGTDFTLKISRVEAEDLGVYFCSQSTHVPFTFGSGTKLEIK
notes: mouse hybridoma mAb; also called 917.19A2E9E5
binding result (109-123aa [11]): binds
binding result (91-105aa [2]): no binding (tested: supernatant 1/100)
binding result (82-96aa [12]): no binding (tested: supernatant 1/100)
binding result (100-114aa [3]): no binding (tested: supernatant 1/100)

B12: ACI-7067-1101C8-Ab2 (antibody, V domains shown)
VH: EVQLVESGGGLVQPKGSLKLSCAASGFSFNIYAMNWVRQAPGKGLEWVARIRSKSNNYATYYADSVKDRFTISRADSESMLYLQMNNLKTEDTAMYYCVRVGLRFYAMDYWGQGTSVTVSS
VL: DVLMTQTPLSLPVSLGDQASISCRSSQSIVHSNGNTYLEWYLQKPGQSPKLLIYKVSNRFSGVPDRFSGSGSGTDFTLKISRVEAEDLGVYYCFQGSQGPLTFGAGTKLELK
IC50, de novo alpha-synuclein aggregates formed in seeded mouse primary cortical neurons (alpha-synuclein fibrils [1]): 114 nM
IC50, de novo alpha-synuclein aggregates formed in the seeded in vitro cellular model (alpha-synuclein fibrils [1]): 3.3 nM

Second part, the binder after the results:

binding result (91-105aa [2]): no binding (tested: supernatant 1/100)
binding result (100-114aa [3]): no binding (tested: supernatant 1/100)
binding result (109-123aa [4]): no binding (tested: supernatant 1/100)
B2: ACI-8033-1F8-Ab1 (antibody, V domains shown)
VH: DVQLQESGPGLVKPSQSLSLTCSVTGYSITSGFYWNWIRQFPGNKLEWMGYISYDGSNNYNPSLKNRISIIRDTSKNQFFLKLKSVTSEDTATYYCVRGDVDWGQGTTLTVSS
VL: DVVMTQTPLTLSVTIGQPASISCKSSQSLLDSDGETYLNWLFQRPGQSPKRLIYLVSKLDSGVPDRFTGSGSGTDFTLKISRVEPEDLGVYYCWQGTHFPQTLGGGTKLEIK
notes: mouse hybridoma mAb; also called 917.1F8D8E4

binding result (37-51aa): no binding (tested: supernatant 1/100)
binding result (82-96aa [5]): no binding (tested: supernatant 1/100)
binding result (1-15aa): binds
B3: ACI-7088-4303A1-Ab1 (antibody, V domains shown)
VH: EVQLQQSGAELVRPGASVKLSCTASGFNIKDDYMHWVKQRPEQGLEWIGWIDPENGDSEYASKFQGKATMTADTSSNTAYLQLSSLTSEDTAVYYCKTWGTAQALFPYWGQGTLVTVSA
VL: DIVMTQSQKFMSTSVGDRVSITCKASQNVGTSVGWYQQKAGQSPKLLIHSASNRYTGVPDRFTGSGSGTDFTLTINNMQSEDLADYFCQQYRSYPLTFGAGTKLELK
notes: mouse hybridoma mAb; also called 4303A1E7

binding result (37-51aa): no binding (tested: supernatant 1/100)
binding result (91-105aa [6]): no binding (tested: supernatant 1/100)
binding result (82-96aa [5]): no binding (tested: supernatant 1/100)
binding result (1-15aa): binds
B4: ACI-7088-4317A4-Ab1 (antibody, V domains shown)
VH: EVQLQQSGAELVRPGASVKLSCTASGFNIKDDYMHWVKQRPEQGLEWIGWIDPENGDTEYASKFQGKATMTADTSSNTAYLQLSSLTSEDTAVYYCKTWGTTQALFPYWGQGTLVTVSA
VL: DIVMTQSQKFMYTSVGDRVSITCKASQNVGNAVGWYQQKAGQSPKLLIHSASNRYTGVPDRFTGTGSGTDFTLTINNMQSEDLADYFCQQYRSYPLTFGAGTKLELK
notes: mouse hybridoma mAb; also called 4317A4D2

Relative koff [7]: 1.3
Relative koff (alpha-synuclein fibrils [8]): 5.5
Kd (alpha-synuclein fibrils [9]): 0.9 nM
koff (alpha-synuclein fibrils [9]): 2.25e-05 s⁻¹
kon (alpha-synuclein fibrils [9]): 23900 M⁻¹ s⁻¹
Kd [10]: 18.2 nM
B6: hACI-7067-1101C8-Ab2_H9L1 (antibody, V domains shown)
VH: EVQLVESGGGLVQPGGSLKLSCAASGFTFNIYAMNWVRQAPGKGLEWVGRIRSKSNAYATYYAASVKGRFTISRDDSKNTLYLQMNNLKTEDTAVYYCTRVGLRFYAMDYWGQGTLVTVSS
VL: DVVMTQSPLSLPVTLGQPASISCRSSQSIVHSNANTYLEWYQQRPGQSPRLLIYKVSNRFSGVPDRFSGSGSGTDFTLKISRVEAEDLGVYYCFQGSQGPLTFGQGTKLEIK
notes: VH on human IgG1 constant, VL on human kappa constant

Relative koff [7]: 0.1
Relative koff (alpha-synuclein fibrils [8]): 0.3
Kd (alpha-synuclein fibrils [9]): 13.7 nM
koff (alpha-synuclein fibrils [9]): 0.000142 s⁻¹
kon (alpha-synuclein fibrils [9]): 10400 M⁻¹ s⁻¹
Kd [10]: 28.7 nM
B7: hACI-7067-1101C8-Ab2_H12L2 (antibody, V domains shown)
VH: EVQLVESGGGLVQPGGSLKLSCAASGFTFNIYAMNWVRQAPGKGLEWVGRIRSKSNAYATYYAASVKGRFTISRDDSKNTAYLQMNNLKTEDTAVYYCTRVGLRFYALDYWGQGTLVTVSS
VL: DVVMTQSPLSLPVTLGQPASISCRSSQSLVHSNANTYLEWYQQRPGQSPRLLIYKVSNRFSGVPDRFSGSGSGTDFTLKISRVEAEDLGVYYCFQGSQGPLTFGQGTKLEIK
notes: as for B6

Relative koff [7]: 0.2
Relative koff (alpha-synuclein fibrils [8]): 1.7
kon (alpha-synuclein fibrils [9]): 11500 M⁻¹ s⁻¹
Kd [10]: 48.2 nM
B8: hACI-7067-1101C8-Ab2_H10L1 (antibody, V domains shown)
VH: EVQLVESGGGLVQPGGSLKLSCAASGFTFNIYAMNWVRQAPGKGLEWVGRIRSKSNAYATYYAASVKGRFTISRDDSKNTLYLQMNNLKTEDTAVYYCTRVGLRFYALDYWGQGTLVTVSS
VL: DVVMTQSPLSLPVTLGQPASISCRSSQSIVHSNANTYLEWYQQRPGQSPRLLIYKVSNRFSGVPDRFSGSGSGTDFTLKISRVEAEDLGVYYCFQGSQGPLTFGQGTKLEIK
notes: as for B6

binding result (100-114aa [13]): binds
binding result (91-105aa [2]): no binding (tested: supernatant 1/100)
binding result (82-96aa [12]): no binding (tested: supernatant 1/100)
binding result (109-123aa [4]): no binding (tested: supernatant 1/100)
B13: ACI-8033-18C11-Ab1 (antibody, V domains shown)
VH: QVQLQQPGAELVKPGASVKMSCKAAGYTFSSYWITWVRQRPGQGLDWIGDIYPGGGVTNYNEKFKTKATLTVDTSSSTAYMQLSSLTSEDSAVYYCATAQTTFAYWGQGTLVTVSA
VL: DVLMTQTPLSLPVSLGDQASISCRSSQNIVHNNGNTYLEWYLQKPGQSPKLLIYKVSNRFSGVPDRFSGSGSGTDFTLKISRVEAEDLGVYYCFQGSHVPRTFGGGTKLEIK
notes: mouse hybridoma mAb; also called 917.18C11A11F10

binding result (91-105aa [2]): no binding (tested: supernatant 1/100)
binding result (82-96aa [12]): no binding (tested: supernatant 1/100)
binding result (100-114aa [3]): no binding (tested: supernatant 1/100)
binding result (109-123aa [4]): no binding (tested: supernatant 1/100)
B14: ACI-8033-25A3-Ab1 (antibody, V domains shown)
VH: EVQLVESGGGLVQPKGSLKLSCAASGFSFNTYAMNWVRQAPGKGLEWVARIRSKSNNFATYYADSVKDRFTISRDESESMLYLQMNNLKTEDTAMYYCVRSFDYWGQGTTLTVSS
VL: DIKMTQSPSSMYASLGERVTITCKASQDINSYLSWFQQKPGKSPKTLIYRAKRLVDGVPSRFSGSGSGQDYSLTISSLEYEDMGIYYCLQYDEFPFTFGSGTKLEIK
notes: mouse hybridoma mAb; also called 917.25A3E9F6
